Where no end group is shown, it is not given here.

For the experiment, the target named is BSA (UniProt P02769 25-607). Nature of the experiment: photocrosslinking with TAMRA-tagged adapter, reducing SDS-PAGE, fluorescence image.

B1: LASIC Protein G adapter with C-terminal STEPL peptide (TAMRA; TAMRA-DBCO; FAM-Azide; Biotin), BPA position not stated (designed binder)
chain: MTFKLIINGKTLKGEITIEAVDAAEAEKIFKQYANDYGIDGEWTYDDATKTFTVTE
modifications: also: BPA at unstated position, C-terminal Gly-Gly-Gly peptide carrying label (TAMRA, TAMRA-DBCO, FAM-azide or biotin)
notes: also called TAMRA dye-tagged LASIC adapter; TAMRA labeled Protein G adapter protein
Regarding B1, the binding result is “no binding”.

Values taken from US20220354962A1 (University of Pennsylvania, published 2022).
